Measured values as given in patent US20130079499A1.
Residue numbers refer to the chain shown, from its start. Where two headings read alike, the source gives them in different places. Blank lines part the entries; values can stand above or below the binder they belong to.

Assays:
[1] = molecular target: γ-globulin formulation (KAKETSUKEN) that was a human antibody (human); assay: batch adsorption: 0.5 mL of 10 mg/mL IgG on 0.1 mL FcRm19-immobilised gel, PBS pH 7.0, eluted at pH 3.0, A280
[2] = molecular target: γ-globulin formulation (KAKETSUKEN) that was a human antibody (human); assay: column of FcRm19-immobilised gel loaded with IgG in PBS pH 7.0; eluted with 100 mM citric acid buffer of the given pH; R=A/(A+B)x100, A280
[3] = molecular target: γ-globulin formulation (KAKETSUKEN) that was a human antibody (human); assay: batch adsorption: 0.5 mL of 10 mg/mL IgG on 0.1 mL FcRm19-immobilised gel (23.0 mg FcRm19 per mL gel), PBS pH 7.0, eluted at pH 3.0, A280
[4] = molecular target: γ-globulin formulation (KAKETSUKEN) that was a human antibody (human); assay: batch adsorption: 3.0 mL of 10 mg/mL IgG on 0.5 mL FcRm56b-immobilised gel (18.7 mg FcRm56b per mL gel), PBS pH 7.0, eluted at pH 3.0, A280
[5] = molecular target: γ-globulin formulation (KAKETSUKEN) that was a human antibody (human); assay: column of FcRm56b-immobilised gel loaded with IgG in PBS pH 7.0; eluted with 100 mM citric acid buffer of the given pH; R=A/(A+B)x100, A280
[6] = molecular target: γ-globulin formulation (KAKETSUKEN) that was a human antibody (human); assay: batch adsorption: 3.0 mL of 10 mg/mL IgG on 0.5 mL FcRm56b-immobilised gel, PBS pH 7.0, eluted at pH 3.0, A280
[7] = molecular target: γ-globulin formulation (KAKETSUKEN) that was a human antibody (human); assay: batch adsorption: 3.0 mL of 10 mg/mL IgG on 0.4 mL FcRm57b-immobilised gel (14.2 mg FcRm57b per mL gel), PBS pH 7.0, eluted at pH 3.0, A280
[8] = molecular target: γ-globulin formulation (KAKETSUKEN) that was a human antibody (human); assay: batch adsorption: 3.0 mL of 10 mg/mL IgG on 0.4 mL FcRm57b-immobilised gel, PBS pH 7.0, eluted at pH 3.0, A280
[9] = molecular target: γ-globulin formulation (KAKETSUKEN) that was a human antibody (human); assay: column of FcRm57b-immobilised gel loaded with IgG in PBS pH 7.0; eluted with 100 mM citric acid buffer of the given pH; R=A/(A+B)x100, A280
[10] = molecular target: γ-globulin formulation (KAKETSUKEN) that was a human antibody (human); assay: ELISA: human γ-globulin coated 1 µg/well, culture supernatant diluted 5x, HRP anti-His-Tag detection
[11] = molecular target: γ-globulin formulation (KAKETSUKEN) that was a human antibody (human); assay: as above; remark: listed apart in the source
[12] = molecular target: γ-globulin formulation (KAKETSUKEN) that was a human antibody (human); assay: column of FcRm32-immobilised gel loaded with IgG in PBS pH 7.0; eluted with 100 mM citric acid buffer of the given pH; R=A/(A+B)x100, A280
[13] = molecular target: γ-globulin formulation (KAKETSUKEN) that was a human antibody (human); assay: batch adsorption: 0.5 mL of 10 mg/mL IgG on 0.1 mL FcRm32-immobilised gel, PBS pH 7.0, eluted at pH 3.0, A280
[14] = molecular target: γ-globulin formulation (KAKETSUKEN) that was a human antibody (human); assay: batch adsorption: 0.5 mL of 10 mg/mL IgG on 0.1 mL FcRm32-immobilised gel (19.3 mg FcRm32 per mL gel), PBS pH 7.0, eluted at pH 3.0, A280
[15] = molecular target: γ-globulin formulation (KAKETSUKEN) that was a human antibody (human); assay: batch adsorption: 0.5 mL of 10 mg/mL IgG on 0.05 mL FcRm36b-immobilised gel, PBS pH 7.0, eluted at pH 3.0, A280
[16] = molecular target: γ-globulin formulation (KAKETSUKEN) that was a human antibody (human); assay: batch adsorption: 0.5 mL of 10 mg/mL IgG on 0.05 mL FcRm36b-immobilised gel (21.0 mg FcRm36b per mL gel), PBS pH 7.0, eluted at pH 3.0, A280
[17] = molecular target: γ-globulin formulation (KAKETSUKEN) that was a human antibody (human); assay: column of FcRm36b-immobilised gel loaded with IgG in PBS pH 7.0; eluted with 100 mM citric acid buffer of the given pH; R=A/(A+B)x100, A280
[18] = molecular target: γ-globulin formulation (KAKETSUKEN) that was a human antibody (human); assay: batch adsorption: 0.5 mL of 10 mg/mL IgG on 0.05 mL FcRm48-immobilised gel (13.6 mg FcRm48 per mL gel), PBS pH 7.0, eluted at pH 3.0, A280
[19] = molecular target: γ-globulin formulation (KAKETSUKEN) that was a human antibody (human); assay: batch adsorption: 0.5 mL of 10 mg/mL IgG on 0.05 mL FcRm48-immobilised gel, PBS pH 7.0, eluted at pH 3.0, A280
[20] = molecular target: γ-globulin formulation (KAKETSUKEN) that was a human antibody (human); assay: column of FcRm48-immobilised gel loaded with IgG in PBS pH 7.0; eluted with 100 mM citric acid buffer of the given pH; R=A/(A+B)x100, A280

B1: Fc binding protein FcRm19 (19 amino acids of a wild-type Fc binding protein substituted) (receptor)
chain: KIEEAMGQVDTPKAVIKLQPPWVSVFQEESVTLHCEVPHLPGSSSTQWFLNGTAIQTSTPTYHITSASEDDSGEYRCQRGLSGRSDPIQLEVHRGWLLLQVSSRVLTEGEPLALRCHAWKDKLVYNVLYYRNGKAFKFFHWNSNLTILKTNMSHSGTYHCSGMGKHRYTSAGISVTVKELFPAPVLTASVTSPLLEGTPVTLSCETKLLLQRPGLQLYFSFYMGSKTLRGRDTSSEYQILTARREDSGLYWCEAATEDGNVLKRSPELELQVLGHQQPTPVHHHHHH
- amount of the eluted IgG [1]: 2.1 mg
- percentage of antibody elution at pH 3.0 [2]: 99.1%
- percentage of antibody elution at pH 3.4 [2]: 87.4%
- percentage of antibody elution at pH 3.8 [2]: 51.3%
- percentage of antibody elution at pH 4.2 [2]: 22%
- amount of adsorbed IgG per mL of the gel (mg per mL of gel) [3]: 21

B5: Fc binding protein FcRm32 (32 amino acids of a wild-type Fc binding protein substituted) (receptor)
chain: KIEEAMGQVDTPKAVIKLQPPWVSVFQGESVTLHCEAPHLSGSSSTQWFLNDTAIQASTPTYHITSASEDDSGEYRCQRGLSGRSDPIQLEVHRGWLLLQVSSRVLTEGEPLALRCHAWKDKLVHNVLYYHNGKAFKFFHRNSNLTIPKTNTSHSGTYHCSGMGRHRYTSAGTSVTVKELFPAPVLTASVTSPLHEGTQVTLSCETKLLLQRPGLQLYFSFYKGSKTLRGRDTSSEYQILTARREDSGLYWCEAATEDGNVLKRSPELELQVLGHQQPTPVHHHHHH
- percentage of antibody elution at pH 3.0 [12]: 98.7%
- percentage of antibody elution at pH 3.4 [12]: 99.3%
- percentage of antibody elution at pH 3.8 [12]: 97.9%
- percentage of antibody elution at pH 4.2 [12]: 82.8%
- amount of eluted IgG [13]: 1.98 mg
- amount of adsorbed IgG per mL of the gel (mg per mL of gel) [14]: 19.8

B6: Fc binding protein FcRm36b (36 amino acids of a wild-type Fc binding protein substituted) (receptor)
chain: B5 chain with Q27L, L33M, S44G, N144T
- amount of eluted IgG [15]: 1.44 mg
- amount of adsorbed IgG per mL of the gel (mg per mL of gel) [16]: 28.8
- percentage of antibody elution at pH 3.0 [17]: 99.5%
- percentage of antibody elution at pH 3.4 [17]: 99.4%
- percentage of antibody elution at pH 3.8 [17]: 92.2%
- percentage of antibody elution at pH 4.2 [17]: 64%

Further lines, results first:

- amount of adsorbed IgG per mL of the gel (mg per mL of gel) [4]: 23
- percentage of antibody elution at pH 3.0 [5]: 99.7%
- percentage of antibody elution at pH 3.4 [5]: 99.5%
- percentage of antibody elution at pH 3.8 [5]: 94.5%
- percentage of antibody elution at pH 4.2 [5]: 73%
- amount of eluted IgG [6]: 11.5 mg
B2: Fc binding protein FcRm56b (56 amino acids of a wild-type Fc binding protein substituted) (receptor)
chain: KIEEAMGQVDTPKAVIKLQPPWVSVFLGESVTMLCEVPHLSGAGSTQWFRNDTAIQASTPTYHIASASEDDSGEYRCQRGLSGRSDPILLEVHRGWLLLQVSARVLIEGEPLVLRCHAWRDKQVHNVLFYHNGKAFKFFHRNTTLTIPRTNTSHSGTYHCSGMGRHRYTSAGTLVSVKELFPAPVLTASVASPLHEGTQVTLSCVTKLLIQRPGLQLYFSFYKGSETLRGRDTSSEYQILAARREDSGLYWCEAATEDGNVVKRSPELELQVLGHQQPTPVHHHHHH

- amount of adsorbed IgG per mL of the gel (mg per mL of gel) [7]: 16.7
- amount of eluted IgG [8]: 6.67 mg
- percentage of antibody elution at pH 3.0 [9]: 99.3%
- percentage of antibody elution at pH 3.4 [9]: 99.6%
- percentage of antibody elution at pH 3.8 [9]: 90.2%
- percentage of antibody elution at pH 4.2 [9]: 66.2%
B3: Fc binding protein FcRm57b (57 amino acids of a wild-type Fc binding protein substituted) (receptor)
chain: B2 chain with Y62F, Q123L, H195L, Q199P, Y222F, S225G

- OD450 nm [10]: 0.14 OD450 nm
- OD450 nm [11]: 0.22 OD450 nm
B4: wild-type Fc binding protein (Fc binding protein with no amino acid substitution) expressed by the pETFcR transformant (receptor)
chain: KIEEAMGQVDTTKAVITLQPPWVSVFQEETVTLHCEVLHLPGSSSTQWFLNGTATQTSTPSYRITSASVNDSGEYRCQRGLSGRSDPIQLEIHRGWLLLQVSSRVFTEGEPLALRCHAWKDKLVYNVLYYRNGKAFKFFHWNSNLTILKTNISHNGTYHCSGMGKHRYTSAGISVTVKELFPAPVLNASVTSPLLEGNLVTLSCETKLLLQRPGLQLYFSFYMGSKTLRGRNTSSEYQILTARREDSGLYWCEAATEDGNVLKRSPELELQVLGLQLPTPVHHHHHH

- amount of adsorbed IgG per mL of the gel (mg per mL of gel) [18]: 18.8
- amount of eluted IgG [19]: 0.94 mg
- percentage of antibody elution at pH 3.0 [20]: 99.2%
- percentage of antibody elution at pH 3.4 [20]: 100%
- percentage of antibody elution at pH 3.8 [20]: 98.2%
- percentage of antibody elution at pH 4.2 [20]: 81.9%
B7: Fc binding protein FcRm48 (48 amino acids of a wild-type Fc binding protein substituted) (receptor)
chain: KIEEAMGQVDTPKAVIKLQPPWVSVFLGESVTMHCEAPHLSGTGSTQWFLNDTAIQASTPTYHITSASEDDSGEYRCQRGLSGRSDPILLEVHRGWLLLQVSSRVLTEGEPLALRCHAWRDKQVHNVLFYHNGKAFKFFHRNSTLTIPRTNTSHSGTYHCSGMGRHRYTSAGTLVSVKELFPAPVLTASVTSPLHEGTQVTLSCVTKLLIQRPGLQLYFSFYKGSKTLRGRDTSSEYQILAARREDSGLYWCVAATEDGNVLKRSPELELQVLGHQQPTPVHHHHHH
